{"source": "paper PMC6788708", "about": "“Occurrence and stability of hetero-hexamer associations formed by β-carboxysome CcmK shell components” (PLoS ONE, 2019)", "binders": {"B1": {"name": "CcmK4 (Synechocystis sp. PCC6803), His4 tag removed by TEV protease (natural protein, UniProt P73407 1-112, looked up)", "chain": "MSAQSAVGSIETIGFPGILAAADAMVKAGRITIVGYIRAGSARFTLNIRGDVQEVKTAMAAGIDAINRTEGADVKTWVIIPRPHENVVAVLPIDFSPEVEPFREAAEGLNRR", "notes": "CcmK4, BMC-H carboxysome shell protein of Synechocystis sp; PCC 6803; In native MS it came from His4-K4 co-expressed with K3-FLAG; The untagged K4 homo-hexamer of the exchange experiment was made from a His4-tagged K4 expressed alone; Residues left after TEV cleavage are in S1 List; also called untagged K4; TEV-untagged His4-K4; source: E. coli BL21(DE3), TALON-purified, tag removed with TEV …"}}, "key": {"[1]": {"target": "the molecule itself", "assay": "native MS; TALON-purified co-expressed samples, tags removed with TEV protease; 150 mM ammonium acetate pH 8; positive-ion native ESI-MS with collision induced dissociation of selected hexamers"}, "[2]": {"target": "the molecule itself", "assay": "crystal structure; pIsep-FPLC fractions of His4-CcmK4/CcmK3-FLAG at 2.9 mg/mL; 22% PEG 4000, 0.2 M ammonium sulfate, 0.1 M sodium acetate pH 4.6, 12 C; only CcmK4 found in the crystal"}, "[3]": {"target": "T1, CcmK2 (Synechocystis sp. PCC6803), FLAG tag removed by TEV protease (Synechocystis sp. PCC6803, UniProt P72761 1-103)", "T1 construct": "CcmK2, BMC-H carboxysome shell protein of Synechocystis sp; PCC 6803; monomer masses in native MS indicate loss of the first methionine; Residues left after TEV cleavage are in S1 List; source: E. coli BL21(DE3), co-expressed with K1-His4, co-purified on TALON, tag removed with TEV protease; not shown: FLAG, C-terminal, cleaved", "T1 sequence (looked up)": "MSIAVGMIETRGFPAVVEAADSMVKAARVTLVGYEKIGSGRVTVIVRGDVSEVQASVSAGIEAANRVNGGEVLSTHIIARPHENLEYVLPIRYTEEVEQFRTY", "assay": "native MS; TALON-purified co-expressed samples, tags removed with TEV protease; 150 mM ammonium acetate pH 8; positive-ion native ESI-MS with collision induced dissociation of selected hexamers", "details": "both partners purified"}, "[4]": {"target": "B1", "assay": "native MS; TALON-purified co-expressed samples, tags removed with TEV protease; 150 mM ammonium acetate pH 8; positive-ion native ESI-MS with collision induced dissociation of selected hexamers", "details": "both partners purified"}}, "note": "Values joined by “and” are separate entries in the source; they are usually repeats but may differ in a detail not shown here. Identical values can stand only once."}
{"binder": "B1", "values": [{"measurement": "stoichiometry N", "setting": "[1]", "result": 6, "unit": "subunits"}]}
{"binder": "His4-CcmK4 (Synechocystis sp. PCC6803 CcmK4, N-ter His4 tag) (natural protein, UniProt P73407 1-112, looked up, CcmK4, BMC-H carboxysome shell protein of Synechocystis sp; PCC 6803; The crystallised sample came from His4-K4/K3-FLAG; no tag removal is told for it; also called His4-K4; source: E. coli BL21(DE3), co-expressed (pET26b-based plasmid, two or four cassettes), soluble fraction of the lysate; TALON-purified (pIsep-FPLC for crystallisation); not shown: His4, N-terminal, kept) MSAQSAVGSIETIGFPGILAAADAMVKAGRITIVGYIRAGSARFTLNIRGDVQEVKTAMAAGIDAINRTEGADVKTWVIIPRPHENVVAVLPIDFSPEVEPFREAAEGLNRR", "values": [{"measurement": "stoichiometry N", "setting": "[2]", "result": 6, "unit": "subunits"}]}
{"binder": "CcmK1 (Synechocystis sp. PCC6803), His4 tag removed by TEV protease (natural protein, UniProt P72760 1-111, looked up, CcmK1, BMC-H carboxysome shell protein of Synechocystis sp; PCC 6803; monomer masses in native MS indicate loss of the first methionine; In native MS it came from K1-His4 co-expressed with K2-FLAG; Residues left after TEV cleavage are in S1 List; also called untagged K1; source: E. coli BL21(DE3), TALON-purified, tag removed with TEV protease; not shown: His4, C-terminal, cleaved) MSIAVGMIETLGFPAVVEAADSMVKAARVTLVGYEKIGSGRVTVIVRGDVSEVQASVTAGIENIRRVNGGEVLSNHIIARPHENLEYVLPIRYTEAVEQFREIVNPSIIRR", "values": [{"measurement": "stoichiometry N", "setting": "[3]", "result": "0.2 K1:K2 in the hexamer (1:5) and 2 K1:K2 in the hexamer (4:2)"}]}
{"binder": "CcmK3 (Synechocystis sp. PCC6803), FLAG tag removed by TEV protease (natural protein, UniProt P73406 1-103, looked up, CcmK3, BMC-H carboxysome shell protein of Synechocystis sp; PCC 6803; monomer mass agrees with loss of the first methionine; Residues left after TEV cleavage are in S1 List; also called TEV-untagged K3-FLAG; source: E. coli BL21(DE3), co-expressed with His4-K4, co-purified on TALON, tag removed with TEV protease; not shown: FLAG, C-terminal, cleaved) MPQAVGVIQTLGFPSVLAAADAMLKGGRVTLVYYDLAERGNFVVAIRGPVSEVNLSMKMGLAAVNESVMGGEIVSHYIVPNPPENVLAVLPVEYTEKVARFRT", "values": [{"measurement": "stoichiometry N", "setting": "[4]", "result": "0.2 K3:K4 in the hexamer (1:5) and 0.5 K3:K4 in the hexamer (2:4)"}]}
